Substrate in data set [1]: O=P(O)(O)OC[C@H]1OC(O)[C@H](O)[C@@H](O)[C@@H]1O
The experiment in a line: cells, lysate or membranes named. As to conditions: Line-Weaver Burk analysis, pH 7.5.

Substrate in data set [2]: NC(=O)c1ccc[n+]([C@@H]2O[C@H](COP(=O)([O-])OP(=O)(O)OC[C@H]3O[C@@H](n4cnc5c(N)ncnc54)[C@H](O)[C@@H]3O)[C@@H](O)[C@H]2O)c1
The data set is described as follows: Km and Vmax of recombinant RINO1 (Biogel 0.5A purified, Line-Weaver Burk analysis). The following applies: other: recombinant RINO1, expressed in E. coli BL21 (DE3), pH 7.5. The format is biochemical, Oryza sativa. Here is the method:
(§1) The cDNA for RINO1 and PINO1 were subcloned into suitable cloning sites of the bacterial expression vector pET 20B (+). The resulting plasmids were introduced into the host strain E. coli BL-21 (DE3). The bacteria were grown in LB medium up to A600 of 0.5-absorbance unit and induced by 0.5 mM IPTG for 6 hours at 30° C. The bacteria were collected by centrifugation and lysed by sonication in a buffer containing 20 mM Tris-HCl, pH 7.5. 10 mM each of NH4Cl and ME, 2 mM PMSF. The lysed extracts were centrifuged and protein from both soluble and membrane fractions were analyzed by 10% SDS-PAGE according to Lammeli (Nature, 227, 660-605, 1970) followed by western blot for immunodetection. The separated proteins were blotted onto PVDF membrane and the blot was probed with rabbit anti L-myo-inositol 1-phosphate synthase antibody (1:500) raised against purified recombinant L-myo-inositol 1-phosphate synthase of Entamoeba (Lohia et al, Mol. Biochem. Parasitol. 98, 67-79, 1999) or purified cytosolic L myo-inositol 1-phosphate […] from Oryza leaves. Bound antibody was detected by the chemiluminiscence (kit from Amersham Life Sciences). […] The expressed RINO1 and PINO1 proteins were solubilized from the pellet fractions in solubilization buffer (8M urea, 0.5 M NaCl, 20 mM Tris-HCl pH 7.5, 10 mM ME, 2 mM PMSF) kept for 30 minutes at room temperature. […]

Substrate in data set [3]: NC(=O)c1ccc[n+]([C@@H]2O[C@H](COP(=O)([O-])OP(=O)(O)OC[C@H]3O[C@@H](n4cnc5c(N)ncnc54)[C@H](O)[C@@H]3O)[C@@H](O)[C@H]2O)c1
The data set is described as follows: Km and Vmax of recombinant PINO1 (Biogel 0.5A purified, Line-Weaver Burk analysis). It is filed as biochemical, Porteresia coarctata. The following applies: other: recombinant PINO1, expressed in E. coli BL21 (DE3), pH 7.5. How it is done: as §1

Here are results for 2 proteins from US20060148059A1, “Salt tolerant l-myo-inositol 1-phosphate synthase and the process of obtaining the same” (priority 2002, published 2006).

For orientation: Km means the concentration of substrate that gives half-maximal velocity.

B1: Oryza sativa L-myo-inositol 1-phosphate synthase RINO1, recombinant (GenBank AB012107) (Oryza sativa Japonica Group) (protein)
chain: MFIESFRVESPHVRYGAAEIESDYQYDTTELVHESHDGASRWIVRPKSVRYNFRTTTTVPKLGVMLVGWGGNNGSTLTAGVIANREGISWATKDKVQQANYYGSLTQASTIRVGSYNGEEIYAPFKSLLPMVNPDDLVFGGWDISNMNLADAMTRAKVLDIDLQKQLRPYMESMVPLPGIYDPDFIAANQGSRANNVIKGTKKEQMEQIIKDIREFKEKSKVDKVVVLWTANTERYSNVCVGLNDTMENLLASVDKNEAEISPSTLYAIACVMEGIPFINGSPQNTFVPGLIDLAIKNNCLIGGDDFKSGQTKMKSVLVDFLVGAGIKPTSIVSYNHLGNNDGMNLSAPQTFRSKEISKSNVVDDMVSSNAILYELGEHPDHVVVIKYVPYVGDSKRAMDEYTSEIFMGGKSTIVLHNTCEDSLLAAPIILDLVLLAELSTRIQLKAEGEEKFHSFHPVATILSYLTKAPLVPPGTPVVNALAKQRAMLENIMRACVGLAPENNMILEYK
notes: homotrimer
As for B1, the Michaelis constant (Km) in data set [1] (other: recombinant RINO1, expressed in E. coli BL21 (DE3)) was 3000 µM; in data set [2] it was 188 µM.

B2: Porteresia coarctata L-myo-inositol 1-phosphate synthase PINO1, recombinant (GenBank AF 412340) (Oryza coarctata) (protein)
chain: MFIESFRVESPHVRYGAAEIESEYRYDTTELVHESHDGASRWVVRPKSVQYHFRTSTTVPKLGVMLVGWGGNNGSTLTAGVIASREGISWATKDKVQQANYYGSLTQASTIRVGSYNGEEIYAPFKSLLPMVNPDDLVFGGWDISNMNLADAMTRAKVLDIDLQKQLRPYMESWCLSLASMIPTSSPLTRDPARTMSSREPRRSRWGRSSKDIREFKENNKMDKAVVLWTANTERYNNCLCLGLMTNGKPSASVDRNQAEISPSTLYCHCLASLEGVRSITGALKKKSWPGIDDLAIKKKLPDPGGLIQKRGKPKKKTGLVDFLMGAGIKPTSIVSYNHLGNNDGTNLSAPQTFRSKEISKSSVVDDMVSSNAILYEPGEHPDHVVVIKYVPYVGDSKRAMDEYTSEIFMGGKNTIVLHNTCEDSLLAAPIILDLVLLAELSTRIQLKGEGEEKFHSFHPVATILSYLTKAPLVPPGTPVVNALAKQRAMLENIMRACVGLAPENNMILEYK
notes: homotrimer
Consider B2, for which the Km was found to be 2500 µM in data set [1] (other: recombinant PINO1, expressed in E. coli BL21 (DE3)) and 166 µM in data set [3].
